Measured values as given in IntAct's records for PubMed 31515488.

B1: Leukocyte receptor cluster member 1 (Homo sapiens), Q96BZ8 (parent)
chain: MNILPKKSWHVRNKDNVARVRRDEAQAREEEKERERRVLLAQQEARTEFLRKKARHQNSLPELEAAEAGAPGSGPVDLFRELLEEGKGVIRGNKEYKEEKRQEKERQEKALGILTYLGQSAAEAQTQPPWYQLPPGRGGPPPGPAPDEKIKSRLDPLREMQKHLGKKRQHGGDEGSRSRKEKEGSEKQRPKEPPSLDQLRAERLRREAAERSRAEALLARVQGRALQEGQPEEDETDDRRRRYNSQFNPQLARRPRQQDPHLTH
B2: Max-like protein X (Homo sapiens), Q9UH92 (parent)
chain: MTEPGASPEDPWVKASPVGAHAGEGRAGRARARRGAGRRGASLLSPKSPTLSVPRGCREDSSHPACAKVEYAYSDNSLDPGLFVESTRKGSVVSRANSIGSTSASSVPNTDDEDSDYHQEAYKESYKDRRRRAHTQAEQKRRDAIKRGYDDLQTIVPTCQQQDFSIGSQKLSKAIVLQKTIDYIQFLHKEKKKQEEEVSTLRKDVTALKIMKVNYEQIVKAHQDNPHEGEDQVSDQVKFNVFQGIMDSLFQSFNASISVASFQELSACVFSWIEEHCKPQTLREIVIGVLHQLKNQLY
partner: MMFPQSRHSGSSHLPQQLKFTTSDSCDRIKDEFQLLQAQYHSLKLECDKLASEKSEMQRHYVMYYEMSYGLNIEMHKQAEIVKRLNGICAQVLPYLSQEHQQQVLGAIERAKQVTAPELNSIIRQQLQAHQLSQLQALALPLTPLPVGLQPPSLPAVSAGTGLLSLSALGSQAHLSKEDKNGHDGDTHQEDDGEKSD
B3: Tripartite motif-containing protein 29 (Homo sapiens), Q14134 (parent)
chain: MEAADASRSNGSSPEARDARSPSGPSGSLENGTKADGKDAKTTNGHGGEAAEGKSLGSALKPGEGRSALFAGNEWRRPIIQFVESGDDKNSNYFSMDSMEGKRSPYAGLQLGAAKKPPVTFAEKGELRKSIFSESRKPTVSIMEPGETRRNSYPRADTGLFSRSKSGSEEVLCDSCIGNKQKAVKSCLVCQASFCELHLKPHLEGAAFRDHQLLEPIRDFEARKCPVHGKTMELFCQTDQTCICYLCMFQEHKNHSTVTVEEAKAEKETELSLQKEQLQLKIIEIEDEAEKWQKEKDRIKSFTTNEKAILEQNFRDLVRDLEKQKEEVRAALEQREQDAVDQVKVIMDALDERAKVLHEDKQTREQLHSISDSVLFLQEFGALMSNYSLPPPLPTYHVLLEGEGLGQSLGNFKDDLLNVCMRHVEKMCKADLSRNFIERNHMENGGDHRYVNNYTNSFGGEWSAPDTMKRYSMYLTPKGGVRTSYQPSSPGRFTKETTQKNFNNLYGTKGNYTSRVWEYSSSIQNSDNDLPVVQGSSSFSLKGYPSLMRSQSPKAQPQTWKSGKQTMLSHYRPFYVNKGNGIGSNEAP

Variants of: B1
Settings: with cep70_human CEP70, Q8NHQ1
Target sequence in this assay (Q8NHQ1 whole entry): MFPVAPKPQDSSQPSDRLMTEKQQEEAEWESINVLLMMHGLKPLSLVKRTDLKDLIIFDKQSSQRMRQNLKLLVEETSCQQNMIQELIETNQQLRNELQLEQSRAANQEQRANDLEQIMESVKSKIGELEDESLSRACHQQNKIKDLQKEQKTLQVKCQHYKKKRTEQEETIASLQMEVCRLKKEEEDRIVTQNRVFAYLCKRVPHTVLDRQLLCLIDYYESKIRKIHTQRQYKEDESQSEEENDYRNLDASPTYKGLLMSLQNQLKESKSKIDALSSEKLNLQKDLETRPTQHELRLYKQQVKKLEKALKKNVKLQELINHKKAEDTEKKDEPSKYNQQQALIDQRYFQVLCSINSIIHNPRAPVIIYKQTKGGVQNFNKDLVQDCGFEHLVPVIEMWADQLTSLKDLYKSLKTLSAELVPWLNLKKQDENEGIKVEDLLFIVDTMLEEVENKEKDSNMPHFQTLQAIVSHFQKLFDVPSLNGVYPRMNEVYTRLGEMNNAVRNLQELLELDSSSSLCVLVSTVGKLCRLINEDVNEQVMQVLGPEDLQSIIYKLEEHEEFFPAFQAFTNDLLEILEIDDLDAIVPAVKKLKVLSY

| effect of a mutation on the interaction | Variant |
| --- | --- |
| with no effect | MNILPKKSWHVRNKDNVARVRRDEAQAREEEKERERRVLLAQQEARTEFLRKKARHQNSLPELEAAEAGAPGSGPVDLFRELLEEGKGVIRGNKEYQEEKRQEKERQEKALGILTYLGQSAAEAQTQPPWYQLPPGRGGPPPGPAPDEKIKSRLDPLREMQKHLGKKRQHGGDEGSRSRKEKEGSEKQRPKEPPSLDQLRAERLRREAAERSRAEALLARVQGRALQEGQPEEDETDDRRRRYNSQFNPQLARRPRQQDPHLTH [K97Q] |

Variants of: B1
Settings: with trim1_human MID2, Q9UJV3
Sequence of trim1_human MID2, Q9UJV3 (Q9UJV3 whole entry): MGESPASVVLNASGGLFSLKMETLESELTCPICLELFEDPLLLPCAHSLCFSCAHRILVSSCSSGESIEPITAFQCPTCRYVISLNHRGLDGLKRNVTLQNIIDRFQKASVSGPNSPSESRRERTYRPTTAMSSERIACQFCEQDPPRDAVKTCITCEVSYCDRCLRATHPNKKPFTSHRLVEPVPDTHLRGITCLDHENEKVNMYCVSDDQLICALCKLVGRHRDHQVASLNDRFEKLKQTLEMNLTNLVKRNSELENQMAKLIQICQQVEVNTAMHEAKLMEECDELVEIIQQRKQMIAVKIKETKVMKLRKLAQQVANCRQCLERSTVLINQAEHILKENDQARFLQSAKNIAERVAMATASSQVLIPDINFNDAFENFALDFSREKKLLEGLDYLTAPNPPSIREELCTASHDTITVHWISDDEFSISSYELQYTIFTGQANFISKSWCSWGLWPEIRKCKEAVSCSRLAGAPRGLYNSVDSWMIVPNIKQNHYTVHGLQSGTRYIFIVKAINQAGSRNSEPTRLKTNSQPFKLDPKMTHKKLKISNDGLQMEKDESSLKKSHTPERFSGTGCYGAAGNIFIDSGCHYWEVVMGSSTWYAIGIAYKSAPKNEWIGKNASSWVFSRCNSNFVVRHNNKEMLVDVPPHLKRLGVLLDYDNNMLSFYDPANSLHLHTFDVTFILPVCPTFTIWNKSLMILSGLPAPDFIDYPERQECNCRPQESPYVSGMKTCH

| effect of a mutation on the interaction | Variant |
| --- | --- |
| with no effect | MNILPKKSWHVRNKDNVARVRRDEAQAREEEKERERRVLLAQQEARTEFLRKKARHQNSLPELEAAEAGAPGSGPVDLFRELLEEGKGVIRGNKEYQEEKRQEKERQEKALGILTYLGQSAAEAQTQPPWYQLPPGRGGPPPGPAPDEKIKSRLDPLREMQKHLGKKRQHGGDEGSRSRKEKEGSEKQRPKEPPSLDQLRAERLRREAAERSRAEALLARVQGRALQEGQPEEDETDDRRRRYNSQFNPQLARRPRQQDPHLTH [K97Q] |

Variants of: B1
Settings: with rop1a_human ROPN1, Q9HAT0
Sequence of rop1a_human ROPN1, Q9HAT0 (Q9HAT0 whole entry): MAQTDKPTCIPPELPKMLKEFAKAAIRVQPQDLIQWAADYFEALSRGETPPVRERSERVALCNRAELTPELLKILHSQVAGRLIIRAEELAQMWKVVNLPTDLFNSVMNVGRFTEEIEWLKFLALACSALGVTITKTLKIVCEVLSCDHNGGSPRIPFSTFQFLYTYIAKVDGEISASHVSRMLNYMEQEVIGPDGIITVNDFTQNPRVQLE

| effect of a mutation on the interaction | Variant |
| --- | --- |
| with no effect | MNILPKKSWHVRNKDNVARVRRDEAQAREEEKERERRVLLAQQEARTEFLRKKARHQNSLPELEAAEAGAPGSGPVDLFRELLEEGKGVIRGNKEYQEEKRQEKERQEKALGILTYLGQSAAEAQTQPPWYQLPPGRGGPPPGPAPDEKIKSRLDPLREMQKHLGKKRQHGGDEGSRSRKEKEGSEKQRPKEPPSLDQLRAERLRREAAERSRAEALLARVQGRALQEGQPEEDETDDRRRRYNSQFNPQLARRPRQQDPHLTH [K97Q] |

Variants of: B1
Settings: with ldoc1_human LDOC1, O95751
Sequence of ldoc1_human LDOC1, O95751 (O95751 whole entry): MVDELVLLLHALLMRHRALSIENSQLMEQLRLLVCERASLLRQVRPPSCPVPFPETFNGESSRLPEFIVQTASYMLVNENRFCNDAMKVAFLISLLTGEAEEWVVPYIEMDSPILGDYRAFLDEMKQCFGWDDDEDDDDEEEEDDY

| effect of a mutation on the interaction | Variant |
| --- | --- |
| with no effect | MNILPKKSWHVRNKDNVARVRRDEAQAREEEKERERRVLLAQQEARTEFLRKKARHQNSLPELEAAEAGAPGSGPVDLFRELLEEGKGVIRGNKEYQEEKRQEKERQEKALGILTYLGQSAAEAQTQPPWYQLPPGRGGPPPGPAPDEKIKSRLDPLREMQKHLGKKRQHGGDEGSRSRKEKEGSEKQRPKEPPSLDQLRAERLRREAAERSRAEALLARVQGRALQEGQPEEDETDDRRRRYNSQFNPQLARRPRQQDPHLTH [K97Q] |

Variants of: B1
Settings: with cc136_human CCDC136, Q96JN2
Sequence of cc136_human CCDC136, Q96JN2 (Q96JN2 whole entry): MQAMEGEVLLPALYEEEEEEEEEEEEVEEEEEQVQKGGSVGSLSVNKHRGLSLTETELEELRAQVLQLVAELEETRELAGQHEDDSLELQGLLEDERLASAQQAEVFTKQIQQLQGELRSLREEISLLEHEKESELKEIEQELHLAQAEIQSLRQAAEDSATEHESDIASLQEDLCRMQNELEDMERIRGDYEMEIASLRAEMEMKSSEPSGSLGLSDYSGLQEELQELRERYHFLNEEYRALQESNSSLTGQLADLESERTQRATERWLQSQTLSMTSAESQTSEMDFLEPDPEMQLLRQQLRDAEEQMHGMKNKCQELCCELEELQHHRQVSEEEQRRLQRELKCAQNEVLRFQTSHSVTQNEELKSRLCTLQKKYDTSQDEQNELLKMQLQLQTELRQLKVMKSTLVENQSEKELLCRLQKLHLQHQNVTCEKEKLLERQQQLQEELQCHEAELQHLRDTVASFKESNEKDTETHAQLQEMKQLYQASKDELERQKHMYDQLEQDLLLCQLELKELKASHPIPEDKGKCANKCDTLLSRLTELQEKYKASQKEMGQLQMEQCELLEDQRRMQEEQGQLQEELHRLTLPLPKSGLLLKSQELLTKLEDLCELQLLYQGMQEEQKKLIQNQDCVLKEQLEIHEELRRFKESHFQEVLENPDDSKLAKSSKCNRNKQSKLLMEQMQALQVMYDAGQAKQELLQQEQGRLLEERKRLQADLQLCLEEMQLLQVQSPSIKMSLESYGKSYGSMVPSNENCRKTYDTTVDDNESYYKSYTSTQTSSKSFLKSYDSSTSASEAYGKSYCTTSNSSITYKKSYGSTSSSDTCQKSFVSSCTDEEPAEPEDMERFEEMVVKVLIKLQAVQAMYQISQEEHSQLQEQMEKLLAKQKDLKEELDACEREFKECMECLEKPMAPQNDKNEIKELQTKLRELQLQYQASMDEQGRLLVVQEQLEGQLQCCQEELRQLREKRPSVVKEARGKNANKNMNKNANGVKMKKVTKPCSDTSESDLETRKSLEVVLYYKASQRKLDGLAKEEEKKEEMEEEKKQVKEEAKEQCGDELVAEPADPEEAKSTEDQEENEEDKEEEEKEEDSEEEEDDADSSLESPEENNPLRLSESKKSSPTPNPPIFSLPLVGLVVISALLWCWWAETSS

| effect of a mutation on the interaction | Variant |
| --- | --- |
| disrupting interaction strength | MNILPKKSWHVRNKDNVARVRRDEAQAREEEKERERRVLLAQQEARTEFLRKKARHQNSLPELEAAEAGAPGSGPVDLFRELLEEGKGVIRGNKEYKEEKRQEKERQEKALGILTYLGQSAAEAQTQPPWYQLPPGRGGPPPGPAPDEKIKSRLDPLREMQKHLGKKRQHGGDEGSRSRKEKEGSEKQRPKEPPSLDQLRAERLRREAAERSRAEALLARVQGRALQEGQPEEDETDDRRRRYNSQFNPQLARRPCQQDPHLTH [R256C] |

Variants of: B2
Settings: with tle5_human TLE5, Q08117

| effect of a mutation on the interaction | Variant |
| --- | --- |
| with no effect | MTEPGASPEDPWVKASPVGAHAGEGRAGRARARRGAGRRGASLLSPKSPTLSVPRGCREDSSHPACAKVEYAYSDNSLDPGLFVESTRKGSVVSRANSIGSTSASSVPNTDDEDSDYHQEAYKESYKDRRRRAHTQAEQKRRDAIKRGYDDLQTIVPTCQQQDFSIGSQKLSKAIVLQKTIDYIQFLHKEKKKQEEEVSTLRKDVTALKIMKVNYEQIVKAHRDNPHEGEDQVSDQVKFNVFQGIMDSLFQSFNASISVASFQELSACVFSWIEEHCKPQTLREIVIGVLHQLKNQLY [Q223R] |

Variants of: B3
Settings: with tri23_human TRIM23, P36406
Sequence of tri23_human TRIM23, P36406 (P36406 whole entry): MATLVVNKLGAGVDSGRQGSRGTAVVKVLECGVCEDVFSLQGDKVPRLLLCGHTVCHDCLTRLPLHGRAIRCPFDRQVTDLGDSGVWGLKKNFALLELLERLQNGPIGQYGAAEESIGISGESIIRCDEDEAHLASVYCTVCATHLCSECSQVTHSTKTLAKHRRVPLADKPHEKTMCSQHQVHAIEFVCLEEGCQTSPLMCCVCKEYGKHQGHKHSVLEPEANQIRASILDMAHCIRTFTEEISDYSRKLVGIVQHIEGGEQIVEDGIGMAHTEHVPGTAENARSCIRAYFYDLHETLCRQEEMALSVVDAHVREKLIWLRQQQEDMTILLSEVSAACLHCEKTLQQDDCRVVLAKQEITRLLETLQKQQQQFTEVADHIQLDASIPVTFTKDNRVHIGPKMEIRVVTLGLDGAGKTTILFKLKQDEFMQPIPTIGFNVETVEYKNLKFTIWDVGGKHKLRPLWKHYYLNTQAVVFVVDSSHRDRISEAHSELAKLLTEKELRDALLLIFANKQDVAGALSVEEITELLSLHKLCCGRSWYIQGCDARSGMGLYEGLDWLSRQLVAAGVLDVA

| effect of a mutation on the interaction | Variant |
| --- | --- |
| with no effect | MEAADASRSNGSSPEARDARSPSGPSGSLENGTKADGKDAKTTNGHGGEAAEGKSLGSALKPGEGRSALFAGNEWRRPIIQFVESGDDKNCNYFSMDSMEGKRSPYAGLQLGAAKKPPVTFAEKGELRKSIFSESRKPTVSIMEPGETRRNSYPRADTGLFSRSKSGSEEVLCDSCIGNKQKAVKSCLVCQASFCELHLKPHLEGAAFRDHQLLEPIRDFEARKCPVHGKTMELFCQTDQTCICYLCMFQEHKNHSTVTVEEAKAEKETELSLQKEQLQLKIIEIEDEAEKWQKEKDRIKSFTTNEKAILEQNFRDLVRDLEKQKEEVRAALEQREQDAVDQVKVIMDALDERAKVLHEDKQTREQLHSISDSVLFLQEFGALMSNYSLPPPLPTYHVLLEGEGLGQSLGNFKDDLLNVCMRHVEKMCKADLSRNFIERNHMENGGDHRYVNNYTNSFGGEWSAPDTMKRYSMYLTPKGGVRTSYQPSSPGRFTKETTQKNFNNLYGTKGNYTSRVWEYSSSIQNSDNDLPVVQGSSSFSLKGYPSLMRSQSPKAQPQTWKSGKQTMLSHYRPFYVNKGNGIGSNEAP [S91C] |

Variants of: B3
Settings: with cep70_human CEP70, Q8NHQ1
Target sequence in this assay (Q8NHQ1 whole entry): as the sequence (Q8NHQ1 whole entry) above

| effect of a mutation on the interaction | Variant |
| --- | --- |
| with no effect | MEAADASRSNGSSPEARDARSPSGPSGSLENGTKADGKDAKTTNGHGGEAAEGKSLGSALKPGEGRSALFAGNEWRRPIIQFVESGDDKNCNYFSMDSMEGKRSPYAGLQLGAAKKPPVTFAEKGELRKSIFSESRKPTVSIMEPGETRRNSYPRADTGLFSRSKSGSEEVLCDSCIGNKQKAVKSCLVCQASFCELHLKPHLEGAAFRDHQLLEPIRDFEARKCPVHGKTMELFCQTDQTCICYLCMFQEHKNHSTVTVEEAKAEKETELSLQKEQLQLKIIEIEDEAEKWQKEKDRIKSFTTNEKAILEQNFRDLVRDLEKQKEEVRAALEQREQDAVDQVKVIMDALDERAKVLHEDKQTREQLHSISDSVLFLQEFGALMSNYSLPPPLPTYHVLLEGEGLGQSLGNFKDDLLNVCMRHVEKMCKADLSRNFIERNHMENGGDHRYVNNYTNSFGGEWSAPDTMKRYSMYLTPKGGVRTSYQPSSPGRFTKETTQKNFNNLYGTKGNYTSRVWEYSSSIQNSDNDLPVVQGSSSFSLKGYPSLMRSQSPKAQPQTWKSGKQTMLSHYRPFYVNKGNGIGSNEAP [S91C] |
